# In the supplement of paper PMC12042874:
# ± gives the uncertainty stated by the source.
# Test: amyloid nucleation score (Sup35N fusion, yeast selection) (log enrichment); library NNK1; higher = more nucleation; inactive = no reads after selection
# How it was run: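 Sup35N fusions to peptides of 20 random codons were expressed in psi-negative yeast, induced 24 hours with 100 μM copper sulfate, and grown 7 days at 30°C on medium lacking adenine and uracil. Input and output plasmid inserts were sequenced by Illumina. The nucleation score is the DiMSum log enrichment of output over input reads, centred on the mode score of non-aggregating sequences. Sequences with under 100 input reads were excluded.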
row,Substance,amyloid nucleation score
1,GIVSAESWSLLQDRHFGAVK,0.578 ± 0.55
2,GIWPLGFGKFGSIFRFANVR,0.939 ± 0.6
3,GKFSKDKILLVSYHKAF,0.886 ± 0.39
4,GKHLTRNAWGRLSLVTDCVR,0.486 ± 0.5
5,GKKTRRLYVKWSSSFLNWMK,0.28 ± 0.85
6,GKLDCVKVLNVHCP,0.527 ± 0.61
7,GKNFYREDAVSVCRWL,0.342 ± 0.64
8,GKPVDRLS,0.066 ± 0.28
9,GKSEVLTFGEGAHVGRSRFY,0.367 ± 0.46
10,GKWFVKRGRIRSAENCIRLF,-0.785 ± 1.1
11,GLACYM,0.413 ± 0.4
12,GLCNGCIFWRVKRIKGLKWF,-0.381 ± 0.22
13,GLGGYT,-0.155 ± 0.49
14,GLGVVPITAERRVSLRYSEC,-0.242 ± 0.35
15,GLICNIDVRMRFVFMVRGSP,2.45 ± 0.21
16,GLLETYDWAVQWTGHLEC,0.168 ± 0.89
17,GLLIFMITTLPFCFWCTVPR,inactive
18,GLLMISISYLITRMVFMDNI,0.412 ± 0.39
19,GLMDRRTFITICVYPFMESW,4.37 ± 0.071
20,GLRVLFGLLGVCPCRDSQWG,inactive
21,GLSGSLSSVIYSSEVRSR,0.036 ± 0.29
22,GLTGLTLWARATRRRVGTLS,-0.153 ± 0.59
23,GLTWKTFPSCPMSENNCIRH,0.133 ± 0.79
24,GLVHMPGHLRVLRQLLSA,0.377 ± 0.56
25,GLWFVC,0.374 ± 0.75

row,Substance,amyloid nucleation score
1,GLWQWAIHLRWIGIEHTQTR,0.295 ± 0.97
2,GLYTLSHHGCNAQGWVRDGS,0.324 ± 0.45
3,GMAVNGYHSLRGKVLEDVGN,-0.289 ± 0.79
4,GMCIRNRMRDNVNSLSSACD,0.362 ± 1.4
5,GMHLNCHGCILSSV,-0.021 ± 0.77
6,GMSCWGLCSYNTRAYRNNPT,-0.151 ± 0.63
7,GMSPPSNSFFSFCFTGLVKF,0.319 ± 0.61
8,GMYPGESSWKLEKEVIL,0.539 ± 0.6
9,GNFHQPFFLMVVFQHARAPL,6.291 ± 0.054
10,GNIDGICERSCNRFANYIQG,1.11 ± 0.49
11,GNSRQYAFNRQIHMSSGESR,-0.535 ± 0.66
12,GNWASIWPLGFELLSYICQE,-0.866 ± 0.49
13,GNYNSPFFRGSVNWNWCM,0.485 ± 1.2
14,GNYVVVVGYN,0.326 ± 0.5
15,GPDNVCCGSRPKISDVGYGM,inactive
16,GPFIVIPK,-0.149 ± 0.64
17,GPHLIKVCFSEPMGFKVFLL,2.12 ± 0.14
18,GPNTPSWYGCL,0.196 ± 0.6
19,GPPRN,0.681 ± 0.65
20,GPRFNVALES,-0.347 ± 0.38
21,GPRHYKVFHSYSAFGGYSVC,1.01 ± 0.81
22,GPSLFG,0.121 ± 0.37
23,GPVRQHCYCDMTTVFRILGA,-1.55 ± 1.4
24,GPWAGVRVRSTCLVRYSWYG,0.242 ± 0.44
25,GQPVFSLDCIYYLLYCFDAT,0.595 ± 0.6

row,Substance,amyloid nucleation score
1,GQRLLL,1.07 ± 0.56
2,GQTLALSYFTVLFSPMLNEW,0.169 ± 1
3,GQWGVVHIQQGVQYCATIRG,0.331 ± 0.69
4,GRCVNVSCHIRRPQVGTPRA,1.07 ± 0.8
5,GRDDSGWPSVVVWSPGADQA,0.243 ± 0.56
6,GRDLPYMTRRNTLWSSKVVF,0.206 ± 0.35
7,GRFSVVAISHKQTFNFDWRT,8.058 ± 0.072
8,GRGTRLYVRRQW,0.39 ± 0.28
9,GRGVLSSPSALGRFSLTEGM,-0.444 ± 0.44
10,GRLMTFSINRRNVWKCDGSR,-0.207 ± 1.1
11,GRLPLTKWASMTRVLMYLLR,0.652 ± 0.47
12,GRMAMWYGTPKGGCCHKSLY,inactive
13,GRMSRMILD,-0.407 ± 0.69
14,GRMTVRNCGQDPLVFRTYQG,-1.13 ± 2.7
15,GRSYFVVGFLSELCEKWLTK,0.046 ± 1
16,GSCDMKVVVKCHCEYGMKQD,2.24 ± 0.13
17,GSCDYRFYNQLGEWNGYRMA,-0.348 ± 0.49
18,GSERPNPV,0.958 ± 0.63
19,GSFVGRR,0.241 ± 0.46
20,GSGNSHLLYRSSNRCLVLYR,-0.134 ± 0.32
21,GSGSVHSWHSLINSSDIFVT,-0.682 ± 0.81
22,GSIQDVIRLAIDVGRAALTE,0.684 ± 0.55
23,GSLAW,-0.972 ± 0.94
24,GSMSGTTDIPC,-0.158 ± 0.51
25,GSPVCTRRRPASLPPLRQVH,0.208 ± 0.45

row,Substance,amyloid nucleation score
1,GSRNNWKTPWSDNHGTLWRC,-0.298 ± 0.47
2,GSRVVQRYVAVHACVHERVT,0.589 ± 0.4
3,GSSDPHVLVN,0.341 ± 0.26
4,GSSQWFRQVLYFRQSPGWGS,-0.33 ± 0.65
5,GSSTVNL,-0.345 ± 1.7
6,GSTQPCRNTFLLFLPALTIP,inactive
7,GSTRYHAKMDPGWVRFT,-0.482 ± 1.7
8,GSVRRKRHGHLDV,inactive
9,GTDRSLAVIFKARCWFWATR,-1.14 ± 1.7
10,GTFAWGHRFYVIAAYFILYD,inactive
11,GTKWVTLQRGGRLGMGRRSD,0.562 ± 1.2
12,GTLDDTGVTDDNFI,1.19 ± 0.4
13,GTLHSKCRGICLDCVAIVIL,-0.092 ± 0.39
14,GVDMRYFGPYAGYADYSKSR,-0.846 ± 0.44
15,GVDRVRQCRARALDFSIGS,-0.372 ± 0.62
16,GVFVKGWYWKWGMGDELQAA,0.182 ± 0.79
17,GVGVCYFSC,2.2 ± 0.22
18,GVKQEHVIPWQEVLGVITL,1.01 ± 0.84
19,GVKTAYGNHAMWRDAVSRRG,0.15 ± 0.57
20,GVMPWLR,-0.123 ± 0.99
21,GVTHKDMSNDYFMGD,-0.285 ± 0.47
22,GVVITSPWGA,1.18 ± 0.85
23,GVVSFNFDSLQF,-0.471 ± 0.65
24,GWIRPVAKSRLWSFSPMEMI,-0.768 ± 0.62
25,GWKVCN,0.362 ± 1.4

row,Substance,amyloid nucleation score
1,GWLTYSPRSALIDHERRSLQ,0.879 ± 0.15
2,GWQRSRVAVAPVVVTQSCGV,-0.671 ± 1.6
3,GWSNSFA,0.123 ± 0.44
4,GWVMLTCIRNAGVNLRPGSR,1.58 ± 0.53
5,GWYEMASAHHMTDWYGW,-0.337 ± 0.51
6,GYGQCSGSYAGSGGT,0.715 ± 0.57
7,GYMSRVTLVVCTMMIRRNGD,0.906 ± 0.24
8,GYSYFPNYHVFRVHE,1.27 ± 0.54
9,GYTRGDDSGAVHSLSWVFAG,-0.361 ± 1.7
10,HAIGTQMVTLGLRSISFSWN,1.19 ± 0.67
11,HAVSDFIPG,0.69 ± 0.41
12,HCGGNSRSVN,-1.11 ± 0.83
13,HCRFWRTFDGSNGRNIENSD,0.986 ± 1.1
14,HCYGIVEFSSSCCEFFRHGV,6.36 ± 0.092
15,HCYHGRGADR,0.181 ± 0.74
16,HDKYTLIGPRH,-1.27 ± 1.2
17,HDTDAKVQILNA,0.626 ± 0.69
18,HEGMLPIDVLRHSRPRQPFV,-0.686 ± 0.83
19,HEKDWLTSVCFISELSTFNN,0.709 ± 0.65
20,HESGRRAIYS,-0.019 ± 0.29
21,HFAGCNSIDLQCNIRCKNIR,5.469 ± 0.048
22,HFGDGILLI,-1.21 ± 1.7
23,HFRVSDKDL,1.2 ± 0.38
24,HFTCRTLITGSYSVTTLNVS,5.23 ± 0.061
25,HFYSGECVFRGACRYQRRGH,0.402 ± 1.4

row,Substance,amyloid nucleation score
1,HGAVLCC,0.305 ± 1.4
2,HGKFRHLSCTASSNEVEGNN,1.17 ± 0.58
3,HGNCWSPTRAVRQYGVNAPM,0.81 ± 0.36
4,HHHLNYTINIRQSYFVMCGG,5 ± 0.071
5,HHLAKCRTLKLYLLWLQRIL,0.471 ± 0.54
6,HHVWGFRSMLDSLHRSDCIQ,-0.989 ± 2.7
7,HIAHTEPGAIWV,inactive
8,HIENNSLKSDIVGRRGVRLS,-0.549 ± 0.64
9,HIIQNLV,0.25 ± 0.77
10,HIKVHKFVGENWETFSRADM,-0.026 ± 1.7
11,HIRCHVRTGEAARHRQVAQY,0.136 ± 0.39
12,HLGTTNMNVFNVG,1.79 ± 0.082
13,HLILRTLWYKYLREKFSE,-0.286 ± 0.3
14,HLINVQ,0.632 ± 0.53
15,HLPTKFLGVPNKLAYSTAPV,-0.401 ± 0.42
16,HLRRVMYLFAANCGPRPAND,-0.69 ± 0.96
17,HLSLPNVPVALWKRSRPVTM,1.26 ± 0.85
18,HLSMFDCVYSF,1.26 ± 0.9
19,HLWFE,-0.146 ± 0.43
20,HLYLFSGFRAVSESEVRGAK,2.6 ± 0.22
21,HMGVRMNHFFTSDLSVVMWF,3.59 ± 0.12
22,HMLASNSRWNTAKGINWGFH,0.758 ± 0.7
23,HMRYWLLQYGVILAQG,0.71 ± 0.42
24,HNFEFFMGQGMIFWCRLTEN,1.24 ± 0.56
25,HNGRVFVMRWLYGVLGECG,-1.31 ± 1.1

row,Substance,amyloid nucleation score
1,HNLYMWVFCCCQYRMNFSWS,3.49 ± 0.11
2,HNQDSCIFGQYSDNEVNASV,-1.47 ± 1.6
3,HNSLWGYFFMF,3.19 ± 0.12
4,HNVLRSHTSRYRYVM,0.226 ± 0.7
5,HPALKWLCPGIERLCLAWSG,0.818 ± 0.61
6,HQFSVHIPCCYSVPGNLYGW,0.888 ± 0.73
7,HRGTDLSLRSWVDWLHTLRG,0.67 ± 0.57
8,HRMGPQVKHIHNIGESKQSE,0.822 ± 0.88
9,HSCYLANCLSRVQGSKRDTE,-0.911 ± 0.54
10,HSFSFCCSSYSCNLVGIELN,7.599 ± 0.043
11,HSGNTLIQMCVI,-0.083 ± 0.61
12,HSHRVIS,0.828 ± 0.51
13,HSKGYMARHDRAYGDSERVV,0.303 ± 0.77
14,HSNMVNS,-0.73 ± 0.33
15,HSSAEIMPGHISGTWGLCDK,-0.62 ± 0.87
16,HSSSSHGEKCGYVGNSHPSS,0.691 ± 0.92
17,HSSWEYSSYGVPSNMEKDWV,inactive
18,HSVFVMVCSSCMVG,8.892 ± 0.068
19,HSYYGHPHTCFAMKEEVHVR,0.035 ± 0.77
20,HTCGIDGLNKRMT,-0.791 ± 1.6
21,HTEYRKYRVCTFLK,0.826 ± 0.4
22,HTLDSISGSCGPLIAIVDFQ,inactive
